Measurements reported in patent US20250059285A1 (ARGENX, published 2025).

T1: human Gal10-His (human, UniProt Q05315 2-142, limits assumed)
T1 construct: also called hGal10-His; human Gal10-His tagged; not shown: His tag
T1 sequence: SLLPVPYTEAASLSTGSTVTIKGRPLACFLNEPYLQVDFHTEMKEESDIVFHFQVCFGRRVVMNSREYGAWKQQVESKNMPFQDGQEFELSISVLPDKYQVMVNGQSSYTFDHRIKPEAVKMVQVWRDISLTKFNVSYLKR

T2: recombinant human Charcot-Leyden crystals (crystalline galectin-10) (human, UniProt Q05315 2-142, limits assumed)
T2 sequence: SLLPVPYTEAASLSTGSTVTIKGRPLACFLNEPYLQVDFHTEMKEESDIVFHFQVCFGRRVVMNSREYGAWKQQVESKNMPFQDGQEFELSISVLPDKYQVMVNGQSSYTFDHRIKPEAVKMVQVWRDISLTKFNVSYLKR


Tests used:
human Gal10-His [1] = biological target: T1, human Gal10-His; assay: SPR, summary table, human Gal10
human Gal10-His [2] = biological target: T1, human Gal10-His; assay: SPR slope against calibrators on captured Gal10-His; sample 2 weeks at 37 C
Protocol: (§1) The binding properties of the seven selected clones following two weeks of temperature stress was analysed using an optimized capture method on a Biacore 3000 instrument. The binding properties of the stressed samples were determined, compared to the calibration point, and expressed as a percentage of Relative Activity (% RA).
(§2) Briefly, a capture method was set-up on a Biacore 3000 instrument. For this purpose, a CM5 chip was coated with a monoclonal anti-His antibody (4000 RU), then a fixed concentration of the human Gal10-His (25 μg/mL) was captured on the anti-His chip before receiving duplicate injections of the calibrators, QC samples and temperature stressed samples of each clone. The slope of each injected sample was then calculated using the BIA evaluation software. Concentrations of the QC samples and temperature stressed samples were back-calculated by interpolating the obtained slopes of these samples to the calibrator curve. Obtained values were within +/−20% of the nominal concentration of the tested samples and are expressed as average relative accuracy (avg % RA) (Table 13).

[3] = biological target: T3, cynomolgus Gal10-His (WGS isoform) (cynomolgus); assay: SPR, summary table, cynomolgus_WGS Gal10
T3 construct: also called cynomolgus antigen

human Gal10-His [4] = biological target: T1, human Gal10-His; assay: SPR Biacore 3000, purified hFab on captured Gal10-His
Protocol: (§3) The binding properties of the selected Fab clones to human Gal10 were analyzed via a capture method established on a Biacore 3000 instrument. Two concentrations of the selected Fab clones were tested on human Gal10-His immobilized on a CM5 chip coated with a monoclonal anti-His. As controls, the clone g7B07 and g7B07_N53A were injected at the beginning and the end of the run. Briefly, a CM5 chip was coated with a monoclonal anti-His antibody (4000 RU), then a fixed concentration of the human Gal10-His (25 μg/mL) was captured on the anti-His chip before receiving two concentrations of the clones in the human Fab backbone.

human Gal10-His [5] = biological target: T1, human Gal10-His; assay: competition ELISA on coated Gal10-His; hFab 20 ug/mL, competitor g7B07-hFab-Biot, streptavidin-HRP
Protocol: An epitope binning analysis of the humanized Fab clones was carried out in comparison with the humanized Fab of g7B07.
For this experiment, a sub-optimal concentration of the biotinylated clone g7B07-humanized Fab was added to the Gal10 coated plate and pre-incubated with the selected clones. The percentage competition with g7B07 was then determined (Table 17). Motavizumab (Mota) in a human Fab backbone was used as a negative control (0% competition). Clone g7B07 was used as the positive control for competition and was therefore set as the 100% competition value. The anti-human specific clone 1D11 (binding to Tyrosine 69 residue) was included in the tested panel as a negative control for competition with 7B07 for Gal10 binding because it was known that clone 1D11 binds to the opposite side of Gal10 (including Tyrosine 69).

human Gal10-His [6] = biological target: T1, human Gal10-His; assay: SPR Biacore 3000, purified hFab (2 conc.) on Gal10-His captured by anti-His CM5
Protocol: as §3

human Gal10-His [7] = biological target: T1, human Gal10-His; assay: summary of periplasmic extract screening (BLI or SPR)
[8] = biological target: T2, recombinant human Charcot-Leyden …; assay: cell-based or functional assay
human Gal10-His [9] = biological target: T1, human Gal10-His; assay: SPR slope against calibrators on captured Gal10-His; T0 sample
Protocol: as §1, §2

human Gal10-His [10] = biological target: T1, human Gal10-His; assay: SPR, overview table of lead Fab candidates
human Gal10-His [11] = biological target: T1, human Gal10-His; assay: SPR Biacore 3000, Fab periplasmic extract on Gal10-His-coated CM5
Protocol: The binding properties of the Fabs (periplasmic extract) to human Gal10-His were analyzed by SPR with a Biacore 3000 instrument. For this purpose, the diluted periplasmic extract was applied on a CM5 chip coated with human Gal10-His. As a positive control, a 20 nM injection of the purified g7B07 clone in the human Fab backbone was included at the beginning and end of the run.
The binding capacity of the Fab periplasmic extract was analyzed by SPR technology using a Biacore 3000. Briefly, diluted periplasmic extracts were injected on CM5 chip coated with 2500 RU of Gal10-His. The amplitude of the binding (Rmax), the dissociation (off-rate) of each clone, as well as the off-rate fold change compared to the controls (g7B07 and g7B07_N53A) are indicated. Clones g20H09 and g23H09 had similar or better off rate compared to the control g7B07 (Table 10). The randomized part of the CDR2 sequence is underlined (Table 10).

human Gal10-His [12] = biological target: T1, human Gal10-His; assay: SPR against T0 reference; sample 4 weeks at 37 C
Protocol: (§4) The functional active concentration of the candidates was then assessed by SPR on a Biacore 3000 instrument (FIG. 4). All samples were evaluated with methods meeting the standard qualification criteria. Aliquots were tested at predefined test concentrations against titration curves from reference samples (T0, −80° C. storage) and in the presence of quality control (QC) samples covering a range of 70-130% relative activity (% RA) towards the reference material.
(§5) comparison/reference ⁽¹⁾ samples correspond to aliquots kept at +37° C. for 4 weeks ⁽²⁾ samples correspond to aliquots kept at +5° C. for 4 weeks prior to nebulization. In brief, samples were nebulized with an Aerogen Solo active vibrating mesh nebulizer that converted a drug solution into an inhalable aerosol. Three different devices for each time-point were used per clone and results are reported by the device (nebulizer) serial number. In case of device fouling, indicated by longer nebulization times […]

human Gal10-His [13] = biological target: T1, human Gal10-His; assay: SPR against T0 reference; sample 4 weeks at 5 C, then nebulized
Protocol: as §4, §5

human Gal10-His [14] = biological target: T1, human Gal10-His; assay: SPR Biacore 3000, hFab on human Gal10-His captured by anti-His CM5
Protocol: (§6) The binding properties of the selected clones to human and cynomolgus Gal10 was analyzed via a capture method established on a Biacore 3000 instrument.
(§7) For this purpose, two approaches were used. In the first, two concentrations of the selected clones were applied on cynomolgus (WGS isoform) Gal10-His capture on a CM5 chip coated with a monoclonal anti-His antibody. The second approach involved a serial dilution that was applied on human or cynomolgus (WGS isoform) Gal10-His in the same set-up.

human Gal10-His [15] = biological target: T1, human Gal10-His; assay: SPR Biacore 3000, hFab on captured human Gal10-His
Text: as §7
Further characterization of the cynomolgus cross-reactivity of these clones highlighted g24F02_N53A and g23H09.

[16] = biological target: T3, cynomolgus Gal10-His (WGS isoform); assay: SPR Biacore 3000, hFab on cynomolgus Gal10-His (WGS) captured by anti-His CM5
Protocol: as §6, §7

human Gal10-His [17] = biological target: T1, human Gal10-His; assay: SPR Biacore 3000, hFab on captured human Gal10-His; column head prints (M), the text gives nM
Protocol: as §6, §7

[18] = biological target: T3, cynomolgus Gal10-His (WGS isoform); assay: SPR Biacore 3000, hFab on captured cynomolgus Gal10-His (WGS); column head prints (M), the text gives nM
Protocol: as §6, §7

Binder	Kd (human Gal10-His [1])	koff (human Gal10-His [1])	% Relative Activity (RA) on Biacore (human Gal10-His [2])	Kd [3]	koff [3]	% Competition against g7B07-Biot (human Gal10-His [5])	Mean OD value (human Gal10-His [5])	Kd (human Gal10-His [6])	kd-fold drop vs g7B07 (human Gal10-His [6])	koff (human Gal10-His [6])	kon (human Gal10-His [6])	crystal dissolution % Relative Activity towards the reference T0 after 2 h, nebulized [8]	crystal dissolution % Relative Activity towards the reference T0 after 2 h, stressed [8]	% Relative Activity (RA) on Biacore (human Gal10-His [9])	Kd (human Gal10-His [10])	koff (human Gal10-His [10])	% relative activity by SPR (human Gal10-His [12])	% relative activity by SPR (human Gal10-His [13])	other results
g20H09 (Fab) (Fab, V domains shown, same VH/VL) VH: EVQLLESGGGLVQPGGSLRLSCAASGFTFRSYDMSWVRQAPGKGLEWVSAIKWHRITYYADSVKGRFTISRDNSKNTLYLQMNSLRAEDTAVYYCATTHGIGTLGFGSWGQGTLVTVSS VL: SYELTQPLSVSVALGQTARITCDGNNIGSKSAQWYQQKPGQAPVLVIYADEYRPEGIPERFSGSNSGNTATLTISRAQAGDEADYYCQVWDGSAAVFGGGTQLTVL	17.5 nM	0.015 s⁻¹	86%	22 nM	0.046 s⁻¹	93.2%	0.33 OD	17.5 nM	0.3 fold	0.015 s⁻¹	860000 M⁻¹ s⁻¹	66%	96%	110%	17.7 nM	0.047 s⁻¹	101%	97%	fold higher dissociation rate than g7B07 (human Gal10-His [4]): 3 fold; kd, fold compared to g7B07 (BLI or SPR) (human Gal10-His [7]): 0.8 fold; recGal10 crystal dissolution EC50 (T2 h), Assay 1, nebulized [8]: 395 µg/mL; recGal10 crystal dissolution EC50 (T2 h), Assay 1, stressed (4 W at 37 C) [8]: 272 µg/mL; recGal10 crystal dissolution EC50 (T2 h), Assay 1, unstressed (T0) [8]: 260 µg/mL; Fold off-rate compared to g7B07 (human Gal10-His [11]): 1.3 fold; koff (human Gal10-His [11]): 0.0088 s⁻¹
g24F02_N53A (human Fab) (Fab, V domains shown, Human Fab backbone: human CH1 and human lambda constant domain (pUPEX vectors); also called g24F02_N53A_2W) VH: EVQLLESGGGLVQPGGSLRLSCAASGFTFSSYAMSWVRQAPGKGLEWVSAINAGGGSTSYADSVKGRFTISRDNSKNTLYLQMNSLRAEDTAVYYCAKGLRVGVLGFDYWGQGTLVTVSS VL: SYELTQPLSVSVALGQTARITCDGNNIGSKSAQWYQQKPGQAPVLVIYADEYRPEGIPERFSGSNSGNTATLTISRAQAGDEADYYCQVWDGSAAVFGGGTQLTVL	1.4 nM	0.0018 s⁻¹	99%	8 nM	0.0088 s⁻¹	99%	0.2 OD	2.3 nM	2.8 fold	0.0016 s⁻¹	710000 M⁻¹ s⁻¹	120%	117%	98%	1.4 nM	0.0018 s⁻¹	103%	111%	Amplitude R0 (human Gal10-His [14]): 647 RU; koff (human Gal10-His [14]): 0.0018 s⁻¹; kon (human Gal10-His [14]): 1.3e+06 M⁻¹ s⁻¹; fold better affinity than g7B07 (human Gal10-His [15]): 6.3 fold; fold better off-rate than g7B07 (human Gal10-His [15]): 3.5 fold; Amplitude R0 [16]: 544 RU; koff [16]: 0.0088 s⁻¹; kon [16]: 1.1e+06 M⁻¹ s⁻¹; fold better affinity than g7B07 (human Gal10-His [4]): 4.7 fold; recGal10 crystal dissolution EC50 (T2 h), Assay 2, nebulized [8]: 159 µg/mL; recGal10 crystal dissolution EC50 (T2 h), Assay 2, stressed (4 W at 37 C) [8]: 164 µg/mL; recGal10 crystal dissolution EC50 (T2 h), Assay 2, unstressed (T0) [8]: 191 µg/mL; Kd (human Gal10-His [17]): 1.43 nM; Kd [18]: 8 nM
